Assay results reported in paper PMC9569133 (Biochemistry, 2021).

Target: the molecule itself
Experiment: native MS

B1: Kir3.2, full-length, human (natural protein, UniProt P48051 1-423, looked up)
chain: MAKLTESMTNVLEGDSMDQDVESPVAIHQPKLPKQARDDLPRHISRDRTKRKIQRYVRKDGKCNVHHGNVRETYRYLTDIFTTLVDLKWRFNLLIFVMVYTVTWLFFGMIWWLIAYIRGDMDHIEDPSWTPCVTNLNGFVSAFLFSIETETTIGYGYRVITDKCPEGIILLLIQSVLGSIVNAFMVGCMFVKISQPKKRAETLVFSTHAVISMRDGKLCLMFRVGDLRNSHIVEASIRAKLIKSKQTSEGEFIPLNQTDINVGYYTGDDRLFLVSPLIISHEINQQSPFWEISKAQLPKEELEIVVILEGMVEATGMTCQARSSYITSEILWGYRFTPVLTLEDGFYEVDYNSFHETYETSTPSLSAKELAELASRAELPLSWSVSSKLNQHAELETEEEEKNLEEQTERNGDVANLENESKV
stoichiometry N: 4
